Experimental data from PMC11790652.

How the values were obtained:
[1] = biological target: P66 G175V (site-directed mutant, B. burgdorferi B31 A3) (Borrelia burgdorferi (strain B31 A3)); assay: native gel or EMSA; BN-PAGE of outer membrane proteins (B-fractions) of the B. burgdorferi strains, immunoblot probed with rabbit polyclonal antibody D8713 against P66
[2] = biological target: P66 G175V (site-directed mutant, B. burgdorferi B31 A3) (Borrelia burgdorferi (strain B31 A3))
[3] = biological target: P66 G584R (site-directed mutant, B. burgdorferi B31 A3) (Borrelia burgdorferi (strain B31 A3)); assay: native gel or EMSA; BN-PAGE of outer membrane proteins (B-fractions) of the B. burgdorferi strains, immunoblot probed with rabbit polyclonal antibody D8713 against P66
[4] = biological target: P66 G584R (site-directed mutant, B. burgdorferi B31 A3) (Borrelia burgdorferi (strain B31 A3))
[5] = biological target: P66 T176M (site-directed mutant, B. burgdorferi B31 A3) (Borrelia burgdorferi (strain B31 A3)); assay: native gel or EMSA; BN-PAGE of outer membrane proteins (B-fractions) of the B. burgdorferi strains, immunoblot probed with rabbit polyclonal antibody D8713 against P66
[6] = biological target: P66 T176M (site-directed mutant, B. burgdorferi B31 A3) (Borrelia burgdorferi (strain B31 A3))

“P66 G175V (site-directed mutant, B. burgdorferi B31 A3) (natural protein)” showed a stoichiometry N [1] of 3 and a black lipid bilayer (BLB) channel conductance of B-fractions in 1 M KCl, 20 mV [2] of less than 5 nS.
“P66 G584R (site-directed mutant, B. burgdorferi B31 A3) (natural protein)” gave a stoichiometry N [3] of 3 and a black lipid bilayer (BLB) channel conductance of B-fractions in 1 M KCl, 20 mV [4] of less than 5 nS.
“P66 T176M (site-directed mutant, B. burgdorferi B31 A3) (natural protein)” was tested, and the stoichiometry N [5] was 3 and the black lipid bilayer (BLB) channel conductance of B-fractions in 1 M KCl, 20 mV [6] was less than 5 nS.
